Experimental data reported in patent US8951961B2, “Structural and mechanistic basis for novel compound biosynthesis using 4-electron hexose oxidase” (Academia Sinica, priority 2009, dated 2015).

Tested on: Dbv29
Assay: Relative enzymatic activities of Dbv29 mutants
Assay type: biochemical, Nonomuraea sp. ATCC39727
Conditions: for Relative activity: relative to WT

| Molecule | catalytic activity | activity relative to WT [%] | Relative activity |
| --- | --- | --- | --- |
| W399A (protein) MTGGTGADAASAGASSTRPELRGERCLPPAGPVKVTPDDPRYLNLKLRGANSRFNGEPDYIHLVGSTQQVADAVEETVRTGKRVAVRSGGHCFEDFVDNPDVKVIIDMSLLTEIAYDPSMNAFLIEPGNTLSEVYEKLYLGWNVTIPGGVCGGVGVGGHICGGGYGPLSRQFGSVVDYLYAVEVVVVNKQGKARVIVATRERDDPHHDLWWAHTGGGGGNFGVVTKYWMRVPEDVGRNPERLLPKPPATLLTSTVTFDWAGMTEAAFSRLLRNHGEWYERNSGPDSPYTGLWSQLMIGNEVPGMGESGFMMPIQVDATRPDARRLLDAHIEAVIDGVPPAEVPEPIEQRWLASTPGRGGRGPASKTKAGYLRKRLTDRQIQAVYENMTHMDGIDYGAVALIGYGGKVNTVDPAATALPQRDAILKVNYITGWANPGNEAKHLTWVRKLYADVYAETGGVPVPNDVSDGAYINYPDSDLADPGLNTSGVPWHDLYYKGNHPRLRKVKAAYDPRNHFHHALSIRP | no product was produced |  |  |
| Y165F/Y473F (protein) MTGGTGADAASAGASSTRPELRGERCLPPAGPVKVTPDDPRYLNLKLRGANSRFNGEPDYIHLVGSTQQVADAVEETVRTGKRVAVRSGGHCFEDFVDNPDVKVIIDMSLLTEIAYDPSMNAFLIEPGNTLSEVYEKLYLGWNVTIPGGVCGGVGVGGHICGGGFGPLSRQFGSVVDYLYAVEVVVVNKQGKARVIVATRERDDPHHDLWWAHTGGGGGNFGVVTKYWMRVPEDVGRNPERLLPKPPATLLTSTVTFDWAGMTEAAFSRLLRNHGEWYERNSGPDSPYTGLWSQLMIGNEVPGMGESGFMMPIQVDATRPDARRLLDAHIEAVIDGVPPAEVPEPIEQRWLASTPGRGGRGPASKTKAGYLRKRLTDRQIQAVYENMTHMDGIDYGAVWLIGYGGKVNTVDPAATALPQRDAILKVNYITGWANPGNEAKHLTWVRKLYADVYAETGGVPVPNDVSDGAYINFPDSDLADPGLNTSGVPWHDLYYKGNHPRLRKVKAAYDPRNHFHHALSIRP | total loss of catalytic activity |  |  |
| H91A/C151A (protein) MTGGTGADAASAGASSTRPELRGERCLPPAGPVKVTPDDPRYLNLKLRGANSRFNGEPDYIHLVGSTQQVADAVEETVRTGKRVAVRSGGACFEDFVDNPDVKVIIDMSLLTEIAYDPSMNAFLIEPGNTLSEVYEKLYLGWNVTIPGGVAGGVGVGGHICGGGYGPLSRQFGSVVDYLYAVEVVVVNKQGKARVIVATRERDDPHHDLWWAHTGGGGGNFGVVTKYWMRVPEDVGRNPERLLPKPPATLLTSTVTFDWAGMTEAAFSRLLRNHGEWYERNSGPDSPYTGLWSQLMIGNEVPGMGESGFMMPIQVDATRPDARRLLDAHIEAVIDGVPPAEVPEPIEQRWLASTPGRGGRGPASKTKAGYLRKRLTDRQIQAVYENMTHMDGIDYGAVWLIGYGGKVNTVDPAATALPQRDAILKVNYITGWANPGNEAKHLTWVRKLYADVYAETGGVPVPNDVSDGAYINYPDSDLADPGLNTSGVPWHDLYYKGNHPRLRKVKAAYDPRNHFHHALSIRP |  | 5 | 0.05 |
| T366A (protein) MTGGTGADAASAGASSTRPELRGERCLPPAGPVKVTPDDPRYLNLKLRGANSRFNGEPDYIHLVGSTQQVADAVEETVRTGKRVAVRSGGHCFEDFVDNPDVKVIIDMSLLTEIAYDPSMNAFLIEPGNTLSEVYEKLYLGWNVTIPGGVCGGVGVGGHICGGGYGPLSRQFGSVVDYLYAVEVVVVNKQGKARVIVATRERDDPHHDLWWAHTGGGGGNFGVVTKYWMRVPEDVGRNPERLLPKPPATLLTSTVTFDWAGMTEAAFSRLLRNHGEWYERNSGPDSPYTGLWSQLMIGNEVPGMGESGFMMPIQVDATRPDARRLLDAHIEAVIDGVPPAEVPEPIEQRWLASTPGRGGRGPASKAKAGYLRKRLTDRQIQAVYENMTHMDGIDYGAVWLIGYGGKVNTVDPAATALPQRDAILKVNYITGWANPGNEAKHLTWVRKLYADVYAETGGVPVPNDVSDGAYINYPDSDLADPGLNTSGVPWHDLYYKGNHPRLRKVKAAYDPRNHFHHALSIRP |  | 11 | 0.11 |
| T366E (protein) MTGGTGADAASAGASSTRPELRGERCLPPAGPVKVTPDDPRYLNLKLRGANSRFNGEPDYIHLVGSTQQVADAVEETVRTGKRVAVRSGGHCFEDFVDNPDVKVIIDMSLLTEIAYDPSMNAFLIEPGNTLSEVYEKLYLGWNVTIPGGVCGGVGVGGHICGGGYGPLSRQFGSVVDYLYAVEVVVVNKQGKARVIVATRERDDPHHDLWWAHTGGGGGNFGVVTKYWMRVPEDVGRNPERLLPKPPATLLTSTVTFDWAGMTEAAFSRLLRNHGEWYERNSGPDSPYTGLWSQLMIGNEVPGMGESGFMMPIQVDATRPDARRLLDAHIEAVIDGVPPAEVPEPIEQRWLASTPGRGGRGPASKEKAGYLRKRLTDRQIQAVYENMTHMDGIDYGAVWLIGYGGKVNTVDPAATALPQRDAILKVNYITGWANPGNEAKHLTWVRKLYADVYAETGGVPVPNDVSDGAYINYPDSDLADPGLNTSGVPWHDLYYKGNHPRLRKVKAAYDPRNHFHHALSIRP |  | 5 | 0.05 |
| C161A (protein) MTGGTGADAASAGASSTRPELRGERCLPPAGPVKVTPDDPRYLNLKLRGANSRFNGEPDYIHLVGSTQQVADAVEETVRTGKRVAVRSGGHCFEDFVDNPDVKVIIDMSLLTEIAYDPSMNAFLIEPGNTLSEVYEKLYLGWNVTIPGGVCGGVGVGGHIAGGGYGPLSRQFGSVVDYLYAVEVVVVNKQGKARVIVATRERDDPHHDLWWAHTGGGGGNFGVVTKYWMRVPEDVGRNPERLLPKPPATLLTSTVTFDWAGMTEAAFSRLLRNHGEWYERNSGPDSPYTGLWSQLMIGNEVPGMGESGFMMPIQVDATRPDARRLLDAHIEAVIDGVPPAEVPEPIEQRWLASTPGRGGRGPASKTKAGYLRKRLTDRQIQAVYENMTHMDGIDYGAVWLIGYGGKVNTVDPAATALPQRDAILKVNYITGWANPGNEAKHLTWVRKLYADVYAETGGVPVPNDVSDGAYINYPDSDLADPGLNTSGVPWHDLYYKGNHPRLRKVKAAYDPRNHFHHALSIRP |  |  | 0.84 |
| H91A (protein) MTGGTGADAASAGASSTRPELRGERCLPPAGPVKVTPDDPRYLNLKLRGANSRFNGEPDYIHLVGSTQQVADAVEETVRTGKRVAVRSGGACFEDFVDNPDVKVIIDMSLLTEIAYDPSMNAFLIEPGNTLSEVYEKLYLGWNVTIPGGVCGGVGVGGHICGGGYGPLSRQFGSVVDYLYAVEVVVVNKQGKARVIVATRERDDPHHDLWWAHTGGGGGNFGVVTKYWMRVPEDVGRNPERLLPKPPATLLTSTVTFDWAGMTEAAFSRLLRNHGEWYERNSGPDSPYTGLWSQLMIGNEVPGMGESGFMMPIQVDATRPDARRLLDAHIEAVIDGVPPAEVPEPIEQRWLASTPGRGGRGPASKTKAGYLRKRLTDRQIQAVYENMTHMDGIDYGAVWLIGYGGKVNTVDPAATALPQRDAILKVNYITGWANPGNEAKHLTWVRKLYADVYAETGGVPVPNDVSDGAYINYPDSDLADPGLNTSGVPWHDLYYKGNHPRLRKVKAAYDPRNHFHHALSIRP |  | 11 | 0.11 |
| C151A (protein) MTGGTGADAASAGASSTRPELRGERCLPPAGPVKVTPDDPRYLNLKLRGANSRFNGEPDYIHLVGSTQQVADAVEETVRTGKRVAVRSGGHCFEDFVDNPDVKVIIDMSLLTEIAYDPSMNAFLIEPGNTLSEVYEKLYLGWNVTIPGGVAGGVGVGGHICGGGYGPLSRQFGSVVDYLYAVEVVVVNKQGKARVIVATRERDDPHHDLWWAHTGGGGGNFGVVTKYWMRVPEDVGRNPERLLPKPPATLLTSTVTFDWAGMTEAAFSRLLRNHGEWYERNSGPDSPYTGLWSQLMIGNEVPGMGESGFMMPIQVDATRPDARRLLDAHIEAVIDGVPPAEVPEPIEQRWLASTPGRGGRGPASKTKAGYLRKRLTDRQIQAVYENMTHMDGIDYGAVWLIGYGGKVNTVDPAATALPQRDAILKVNYITGWANPGNEAKHLTWVRKLYADVYAETGGVPVPNDVSDGAYINYPDSDLADPGLNTSGVPWHDLYYKGNHPRLRKVKAAYDPRNHFHHALSIRP |  | 23 | 0.23 |
| I401A (protein) MTGGTGADAASAGASSTRPELRGERCLPPAGPVKVTPDDPRYLNLKLRGANSRFNGEPDYIHLVGSTQQVADAVEETVRTGKRVAVRSGGHCFEDFVDNPDVKVIIDMSLLTEIAYDPSMNAFLIEPGNTLSEVYEKLYLGWNVTIPGGVCGGVGVGGHICGGGYGPLSRQFGSVVDYLYAVEVVVVNKQGKARVIVATRERDDPHHDLWWAHTGGGGGNFGVVTKYWMRVPEDVGRNPERLLPKPPATLLTSTVTFDWAGMTEAAFSRLLRNHGEWYERNSGPDSPYTGLWSQLMIGNEVPGMGESGFMMPIQVDATRPDARRLLDAHIEAVIDGVPPAEVPEPIEQRWLASTPGRGGRGPASKTKAGYLRKRLTDRQIQAVYENMTHMDGIDYGAVWLAGYGGKVNTVDPAATALPQRDAILKVNYITGWANPGNEAKHLTWVRKLYADVYAETGGVPVPNDVSDGAYINYPDSDLADPGLNTSGVPWHDLYYKGNHPRLRKVKAAYDPRNHFHHALSIRP |  |  | 0.09 |
| W399F (protein) MTGGTGADAASAGASSTRPELRGERCLPPAGPVKVTPDDPRYLNLKLRGANSRFNGEPDYIHLVGSTQQVADAVEETVRTGKRVAVRSGGHCFEDFVDNPDVKVIIDMSLLTEIAYDPSMNAFLIEPGNTLSEVYEKLYLGWNVTIPGGVCGGVGVGGHICGGGYGPLSRQFGSVVDYLYAVEVVVVNKQGKARVIVATRERDDPHHDLWWAHTGGGGGNFGVVTKYWMRVPEDVGRNPERLLPKPPATLLTSTVTFDWAGMTEAAFSRLLRNHGEWYERNSGPDSPYTGLWSQLMIGNEVPGMGESGFMMPIQVDATRPDARRLLDAHIEAVIDGVPPAEVPEPIEQRWLASTPGRGGRGPASKTKAGYLRKRLTDRQIQAVYENMTHMDGIDYGAVFLIGYGGKVNTVDPAATALPQRDAILKVNYITGWANPGNEAKHLTWVRKLYADVYAETGGVPVPNDVSDGAYINYPDSDLADPGLNTSGVPWHDLYYKGNHPRLRKVKAAYDPRNHFHHALSIRP |  | 15 | 0.16 |
